The target of test [1] is human insulin receptor isoform B (human) (UniProt P06213). Description: competitive displacement of 125I-human insulin, FLAG-tagged receptor captured on anti-FLAG plate. Conditions: scale: % of the affinity of human insulin for IR-A. For orientation: Loss of bound radioactivity is the signal in a displacement assay; it reports binding, not function.
For test [2] the target is unchanged. Put plainly: competitive displacement of 125I-insulin from receptor.

Sequence of His^A8, Asp^B10, Asp^B28, Pro^B29 insulin (two chain analogue) (ligand) (chain): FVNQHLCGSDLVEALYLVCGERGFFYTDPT
Sequence of His^A8, Asp^B10, Asp^B28, Pro^B29 insulin (two chain analogue) (ligand) (chain): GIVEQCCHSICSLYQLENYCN

For “Insulin-like Growth Factor 1 (from UniProt P05019 49-118) (ligand)”, the relative affinity in test [1] amounted to 0.7.
Still for that read-out and setting: to “insulin-like growth factor II (from UniProt P01344 25-91) (ligand)” belongs 4.
In the case of “His^A8, Asp^B10, Asp^B28, Pro^B29 insulin (two chain analogue) (ligand)”, in test [2], the equilibrium dissociation constant (Kd) – broadly, the equilibrium constant for the complex coming apart – was determined as 0.01 nM and the relative affinity (relative to human insulin) is 4.7.

Values taken from patent US20110195896A1, “ISOFORM-SPECIFIC INSULIN ANALOGUES” (CASE WESTERN RESERVE UNIVERSITY, priority 2008, published 2011).
